We go through twelve molecules from patent US20050026157, “Use of chimeric nucleases to stimulate gene targeting” (published 2005).

Data set [1] concerns GFP-CN1 chimeric nuclease (synthetic). In words: cell_activity. The settings on record: paired with GFP-CN2, 293 cells.
Data set [2] has as its system GFP-CN2 chimeric nuclease (synthetic). In words: cell_activity. The settings on record: paired with GFP-CN1, 293 cells.
Data set [3] concerns HBGZF1 chimeric nuclease (synthetic). Put plainly: cell_activity. To be noted: with ZIF-L3-Fn on hybrid target; no significant stimulation alone.
In data set [4] the target is ZIF-L3-Fn chimeric nuclease (Zif268 zinc fingers, 3 aa linker, FokI nuclease domain) (UniProt P08046). Put plainly: cell_activity. The settings on record: QQRZIF6 target, heterodimer with QQR-L0-Fn; no significant stimulation alone; FIG. 3A prints Zif site as GCGTGGTCG
ZIF-L3-Fn chimeric nuclease (Zif268 zinc fingers, 3 aa linker, FokI nuclease domain), sequence (P08046 whole entry, change not shown, the tested form may be a part): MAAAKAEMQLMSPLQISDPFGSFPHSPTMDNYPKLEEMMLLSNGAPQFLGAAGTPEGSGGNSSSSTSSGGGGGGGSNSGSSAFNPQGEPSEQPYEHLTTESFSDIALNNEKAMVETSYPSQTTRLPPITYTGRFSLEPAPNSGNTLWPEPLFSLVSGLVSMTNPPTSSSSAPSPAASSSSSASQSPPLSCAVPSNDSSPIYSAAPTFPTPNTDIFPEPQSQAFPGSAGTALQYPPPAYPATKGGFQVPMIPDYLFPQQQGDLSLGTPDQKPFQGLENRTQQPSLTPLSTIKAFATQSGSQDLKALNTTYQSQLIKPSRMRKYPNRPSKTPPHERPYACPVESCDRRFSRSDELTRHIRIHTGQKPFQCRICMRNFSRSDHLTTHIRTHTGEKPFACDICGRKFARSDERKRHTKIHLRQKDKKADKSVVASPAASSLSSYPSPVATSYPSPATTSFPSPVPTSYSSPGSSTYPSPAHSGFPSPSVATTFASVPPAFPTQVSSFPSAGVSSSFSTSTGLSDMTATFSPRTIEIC
In data set [5] the test system is HBGZF4 chimeric nuclease (synthetic). Put plainly: cell_activity. To be noted: with ZIF-L3-Fn on hybrid target; ~30 fold alone.
The test system of data set [6] is QQR-L18-Fn chimeric nuclease (QQR zinc finger triplet, 18 aa linker, FokI nuclease domain) (synthetic). In words: cell_activity. To be noted: homodimer, 293 cells.
The subject of data set [7] is QQR-L0-Fn chimeric nuclease (QQR zinc finger triplet, no linker, FokI nuclease domain) (synthetic). Put plainly: cell_activity.
Data set [8] concerns HCGCZF2 chimeric nuclease (synthetic). In words: cell_activity. To be noted: with ZIF-L3-Fn on hybrid target; no significant stimulation alone.
For data set [9], the system named is CD8CN2 chimeric nuclease (synthetic). In words: cell_activity. The settings on record: paired with CD8CN1; 5% without nucleases.
Data set [10] relates to CD8CN1 chimeric nuclease (synthetic). In words: cell_activity. To be noted: paired with CD8CN2; 5% without nucleases.
For another data set, the target named is T1, I-SceI (UniProt P03882 P03882:1-235).
T1 sequence: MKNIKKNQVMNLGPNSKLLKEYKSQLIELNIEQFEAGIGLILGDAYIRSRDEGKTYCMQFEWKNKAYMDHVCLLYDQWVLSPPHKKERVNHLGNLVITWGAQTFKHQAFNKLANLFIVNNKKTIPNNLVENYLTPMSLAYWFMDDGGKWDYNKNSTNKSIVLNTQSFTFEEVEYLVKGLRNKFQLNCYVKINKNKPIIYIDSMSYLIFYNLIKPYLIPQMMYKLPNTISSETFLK
In words: cell_activity; homing endonuclease, A658 target, 293 cells. An excerpt:
FIG. 1A illustrates a GFP gene targeting system. The artificial gene target (A658) consisted of a GFP gene mutated by a 35 basepair insertion which includes a stop codon and a recognition site for the I-SceI endonuclease (Sce) (5′ […] 3′) at basepair 327 of the coding sequence. The GFP gene was driven by a hybrid cytomegalovirus enhancer/chicken β3-actin promoter (“CMV/CBA” or “CBA”). The GFP gene was part of bicistronic transcript in which an internal ribosomal entry site (“IRES”) allowed translation of the human CD8α gene (“CD8”). The bicistronic message contained a Woodchuck post-trancriptional regulatory element (“WPRE”) to increase messenger RNA levels (Zufferey et al., 1999, J Virol, 73:2886-92). Finally, the locus contained a gene with the phosphoglycerate kinase promoter (“PGK”) driving the neomycin phosphotransferase gene (NEO) to allow selection by the antibiotic G418. […] Gene targeting was measured by transfecting 293/A658 cells with RS2100 with or without a Sce expression plasmid along with a control plasmid (pON405) to determine the transfection efficiency. […] The cells were then incubated for 3 days and the percentage of GFP positive cells measured by flow cytometry using a FACScan (BD Biosciences, San Jose, Calif.). The gene targeting rate was determined by normalizing the measured percentage of GFP positive cells to the transfection efficiency.

As to “GAAGATGGT (double strand) [GFP-CN1 half-site]”, the activity (fold stimulation of gene targeting) in data set [1] worked out at 1000.
As for “GACGACGGC (double strand) [GFP-CN2 half-site]”, the activity (fold stimulation of gene targeting) in data set [2] worked out at 1000.
Consider “GAGGTTGCT (double strand) [HBGZF1 half-site]”, for which the activity (fold stimulation of gene targeting) in data set [3] is over 4000.
For “GCGTGGGCG (double strand) [Zif268 half-site]”, the activity (fold stimulation of gene targeting) in data set [4] is over 5000.
For “GGCAAGGTG (double strand) [HBGZF4 half-site]”, the activity (fold stimulation of gene targeting) in [5] was 60.
Regarding “GGGGAAGAA (double strand) [QQR6 target (inverted QQR sites, 6 bp spacer)]”, the activity (fold stimulation of gene targeting) in [6] was 17; in [7] (homodimer, 293 cells, as efficient as I-SceI) it was over 2000.
Consider “GGGGAAGAA (double strand) [QQR8 target (inverted QQR sites, 8 bp spacer)]”, for which, in [6], the activity (fold stimulation of gene targeting) amounted to 260.
With “GGGGAAGAA (double strand) [QQR half-site in QQRZIF6]”, the activity (fold stimulation of gene targeting) in [7] (QQRZIF6 target, heterodimer with ZIF-L3-Fn, no significant stimulation alone) was over 5000.
Turning to “GGGGGAGCA (double strand) [HCGCZF2 half-site]”, in data set [8], the activity (fold stimulation of gene targeting) was over 200.
“GTCGCAGCC (double strand) [CD8CN2 half-site]” returned an activity (% CD8 negative cells) in data set [9] of over 20.
In turn, “GTGGGCGCC (double strand) [CD8CN1 half-site]” had an activity (% CD8 negative cells) in data set [10] of over 20.

B1: I-SceI site in A658 (dsDNA)
DNA 1: TAGGGATAACAGGGTAAT
DNA 2: ATTACCCTGTTATCCCTA
Consider B1, for which the activity with I-SceI was > 2000 fold stimulation of gene targeting.
